Assay results: article PMC7996396, “Affinity and Structural Analysis of the U1A RNA Recognition Motif with Engineered Methionines to Improve Experimental Phasing”

Key:
[1] = target: TBP6.9 (Homo sapiens (lab-evolved)) (UniProt P09012); test: ITC; settings: ITC: 50 mM Na-HEPES pH 7.5, 50 mM NaCl, 50 mM KCl, 2 mM MgCl2, 5 mM beta-mercaptoethanol, 20 C; protein in syringe, RNA in cell
[2] = target: TBP6.9(F34M/F37M/F77M) 7Se-Met (Homo sapiens (lab-evolved)) (UniProt P09012); test: ITC; settings: ITC: 50 mM Na-HEPES pH 7.5, 50 mM NaCl, 50 mM KCl, 2 mM MgCl2, 5 mM beta-mercaptoethanol, 20 C; protein in syringe, RNA in cell
[3] = target: dmU1A (U1A RRM1 Y31H/Q36R) (Homo sapiens, UniProt P09012 1-98, Y31H;Q36R); test: ITC; ITC: 50 mM Na-HEPES pH 7.5, 50 mM NaCl, 50 mM KCl, 2 mM MgCl2, 5 mM beta-mercaptoethanol, 20 C; protein in syringe, RNA in cell; settings: protein: recombinant; tags: N-terminal 6xHis removed with TEV protease; hairpin, loop closed by C65-G76
[4] = target: dmU1A(F37M/F77M) 7Se-Met (Homo sapiens, UniProt P09012 1-98, Y31H;Q36R;F37M;F77M); test: ITC; Se-Met protein; ITC: 50 mM Na-HEPES pH 7.5, 50 mM NaCl, 50 mM KCl, 2 mM MgCl2, 5 mM beta-mercaptoethanol, 20 C; protein in syringe, RNA in cell; settings: protein: recombinant; tags: N-terminal 6xHis removed with TEV protease; hairpin, loop closed by C65-G76
Sequence of dmU1A(F37M/F77M) 7Se-Met (P09012 1-98 Y31H/Q36R/F37M/F77M): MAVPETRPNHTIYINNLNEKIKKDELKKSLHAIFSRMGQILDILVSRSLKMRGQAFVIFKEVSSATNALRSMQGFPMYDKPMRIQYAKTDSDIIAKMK

Sequence of TBP6.9 (Homo sapiens (lab-evolved)) (P09012 whole entry, stated change not applied): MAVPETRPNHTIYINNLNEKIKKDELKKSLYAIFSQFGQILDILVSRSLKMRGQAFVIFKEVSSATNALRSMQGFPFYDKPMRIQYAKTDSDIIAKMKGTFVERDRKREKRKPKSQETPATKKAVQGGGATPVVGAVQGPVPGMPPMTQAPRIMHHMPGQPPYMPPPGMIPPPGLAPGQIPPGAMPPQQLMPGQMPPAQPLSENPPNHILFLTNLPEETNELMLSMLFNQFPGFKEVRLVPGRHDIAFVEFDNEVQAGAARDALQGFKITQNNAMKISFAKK
Sequence of TBP6.9(F34M/F37M/F77M) 7Se-Met (Homo sapiens (lab-evolved)) (P09012 whole entry, stated change not applied): as above
Sequence of dmU1A (U1A RRM1 Y31H/Q36R) (P09012 1-98 Y31H/Q36R): as the sequence (P09012 1-98 Y31H/Q36R/F37M/F77M) above, with M37F, M77F counted along it

Row | Molecule | Kd [1] [nM] | Kd [2] [nM] | Kd [3] [nM] | Kd [4] [nM]
1 | GGAGAUCUGAGCCUGGGAGCUCUCUCC [HIV-1 TAR 27-mer] | 8.5 | 13.5 | – | –
2 | GCAGAUCUGAGCCCGAAAGGAGCUCUCUGC [GNRA-TAR 30-mer] | 87.8 | 69.8 | – | –
3 | CGAAUCCAUUGCACUCCGGAUUCG (structured_RNA) [hpII 24-mer (U1 snRNA hairpin II)] | – | – | 152 ± 7 | 59.7 ± 11.4
